Source: patent publication US20170044234A1 (INSERM INSTITUT NATIONAL DE LA SANTE ET DE LA RECHERCHE …, published 2017)
Ends that are not written are not given here.

B3: adaptor protein FADD (other, UniProt Q13158 1-208, looked up)
chain: MDPFLVLLHSVSSSLSSSELTELKFLCLGRVGKRKLERVQSGLDLFSMLLEQNDLEPGHTELLRELLASLRRHDLLRRVDDFEAGAAAGAAPGEEDLCAAFNVICDNVGKDWRRLARQLKVSDTKIDSIEDRYPRNLTERVRESLRIWKNTEKENATVAHLVGALRSCQMNLVADLVQEVQQARDLQNRSGAMSPMSWNSDASTSEAS
notes: Detected with an anti-human FADD mAb (clone 1); also called Fas-associated death domain protein

Key:
[1] = biological target: serum CD95L of SLE patients (soluble, homotrimeric) (human) (UniProt P48023); assay: cell-based or functional assay
[2] = biological target: T1, Myc-tagged full-length human PLCγ1 (human, UniProt P19174 1-1290); assay: co-immunoprecipitation with CD95 from transfected HEK cells stimulated with CD95L, immunoblot
T1 construct: Transfected into HEK cells; also called wild type PLCγ1; phospholipase Cγ1; not shown: Myc tag of the pTriEx-4 construct
T1 sequence (looked up): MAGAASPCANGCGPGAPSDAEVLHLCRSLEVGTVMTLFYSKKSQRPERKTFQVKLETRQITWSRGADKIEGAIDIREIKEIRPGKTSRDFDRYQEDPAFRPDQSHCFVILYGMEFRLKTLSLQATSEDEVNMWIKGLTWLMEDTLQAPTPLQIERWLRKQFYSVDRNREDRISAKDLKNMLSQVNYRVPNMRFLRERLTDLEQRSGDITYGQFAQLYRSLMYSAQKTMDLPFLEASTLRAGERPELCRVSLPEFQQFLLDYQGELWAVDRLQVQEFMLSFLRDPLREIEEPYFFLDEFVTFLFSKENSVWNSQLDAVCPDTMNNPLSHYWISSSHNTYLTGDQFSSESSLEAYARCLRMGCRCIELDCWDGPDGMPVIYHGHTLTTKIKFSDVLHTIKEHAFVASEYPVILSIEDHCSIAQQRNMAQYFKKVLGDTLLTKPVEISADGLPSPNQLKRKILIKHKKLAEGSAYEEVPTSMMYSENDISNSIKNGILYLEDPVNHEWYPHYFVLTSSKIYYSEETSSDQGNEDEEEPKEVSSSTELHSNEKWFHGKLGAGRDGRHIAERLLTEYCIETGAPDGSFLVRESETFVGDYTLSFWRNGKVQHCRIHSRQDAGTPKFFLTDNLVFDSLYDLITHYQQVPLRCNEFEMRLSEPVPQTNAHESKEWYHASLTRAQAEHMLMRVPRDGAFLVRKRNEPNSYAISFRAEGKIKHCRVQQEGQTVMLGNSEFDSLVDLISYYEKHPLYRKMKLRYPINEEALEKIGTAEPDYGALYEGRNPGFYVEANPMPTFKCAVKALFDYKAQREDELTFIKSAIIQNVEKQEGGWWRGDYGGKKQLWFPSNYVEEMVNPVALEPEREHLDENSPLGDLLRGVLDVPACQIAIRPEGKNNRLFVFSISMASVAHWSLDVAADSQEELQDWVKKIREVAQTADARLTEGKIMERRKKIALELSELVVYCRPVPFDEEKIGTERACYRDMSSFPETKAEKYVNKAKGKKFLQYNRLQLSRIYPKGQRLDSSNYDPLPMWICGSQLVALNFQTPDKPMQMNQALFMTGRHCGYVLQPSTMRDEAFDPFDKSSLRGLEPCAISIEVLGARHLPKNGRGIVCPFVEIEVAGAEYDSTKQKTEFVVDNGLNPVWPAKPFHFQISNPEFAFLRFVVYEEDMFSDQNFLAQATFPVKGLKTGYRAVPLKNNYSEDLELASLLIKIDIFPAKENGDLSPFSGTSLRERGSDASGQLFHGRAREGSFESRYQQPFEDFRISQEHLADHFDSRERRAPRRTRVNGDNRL

adaptor protein FADD = biological target: B3; assay: as above
GFP-fused CD95^1-210 = biological target: T2, GFP-fused CD95^1-210 (human, UniProt P25445 17-226); assay: as above
T2 construct: also called CD95 construct devoid of DD; not shown: GFP of vector pEGFP-N1 (Clontech), fused C-terminally
T2 sequence: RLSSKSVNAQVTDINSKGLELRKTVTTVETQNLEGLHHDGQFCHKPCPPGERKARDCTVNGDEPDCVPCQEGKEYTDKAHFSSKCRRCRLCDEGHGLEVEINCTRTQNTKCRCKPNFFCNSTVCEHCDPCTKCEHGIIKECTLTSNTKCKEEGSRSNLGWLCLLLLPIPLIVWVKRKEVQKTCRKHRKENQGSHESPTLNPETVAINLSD

[3] = biological target: T1, Myc-tagged full-length human PLCγ1; assay: PLCγ1 immunoprecipitation from HEK cells co-transfected with PLCγ1 and CID-mCherry, immunoblot

Sequence of serum CD95L of SLE patients (soluble, homotrimeric) (human) (P48023 130-281 limits assumed): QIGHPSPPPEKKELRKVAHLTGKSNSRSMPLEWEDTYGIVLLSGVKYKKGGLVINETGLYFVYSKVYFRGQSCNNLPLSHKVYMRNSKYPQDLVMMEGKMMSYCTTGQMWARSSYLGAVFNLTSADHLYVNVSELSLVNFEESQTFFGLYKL

B1: neutralizing anti-CD95L mAb (Nok1) (antibody, from another filing, V domains shown)
VH: VQLQESGPELVKPGASVKISCKASGYAFSSSWMNWVKQRPGKGLEWIGRIYPGDGDTNDNGKFKGKATLTADKSSSTAYMQLSSLTSEDSAVYFCARSYYYDGSPWFTYWGQGTTVTVSS
VL: DIQMTQSPSSLSASLGDRVTISCRASQDISNYLNWYQQKPDGTVKLLIYYTSRLHSGVPSRFSGSGSGTDYSLTISNLEPEDIATYFCQQYSEFPWTFGGGTKLEIKR
With B1 as the binder, how does the T-cell transmigration induced by fractions 76-78 [1] read?
Its T-cell transmigration induced by fractions 76-78 is under 50%.

B2: GFP-fused CD95^1-175 (receptor)
chain: RLSSKSVNAQVTDINSKGLELRKTVTTVETQNLEGLHHDGQFCHKPCPPGERKARDCTVNGDEPDCVPCQEGKEYTDKAHFSSKCRRCRLCDEGHGLEVEINCTRTQNTKCRCKPNFFCNSTVCEHCDPCTKCEHGIIKECTLTSNTKCKEEGSRSNLGWLCLLLLPIPLIVWVK
notes: also called CD95 devoid of the entire intracellular domain; not shown: GFP of vector pEGFP-N1 (Clontech), fused C-terminally
Which results are given for B2?
binding result [2]: no binding; binding result (adaptor protein FADD): no binding

Does B3 bind (GFP-fused CD95^1-210)?
Result: no binding

B4: CD95^(175-210)-mCherry (other)
chain: KRKEVQKTCRKHRKENQGSHESPTLNPETVAINLSD-mCherry
modifications: also: mCherry fused C-terminally, junction not given here
notes: Expressed in HEK cells together with PLCγ1; also called CID-mCherry; CID-mCHERRY; not shown: mCherry of vector pmCHERRY-N1, fused C-terminally
Does B4 bind [3]?
Result: binds
